Publication PMC7135998

Target: α-tubulin of purified porcine brain tubulin (porcine) (UniProt P02550)
Chain of UniProt P02550 (P02550 whole entry): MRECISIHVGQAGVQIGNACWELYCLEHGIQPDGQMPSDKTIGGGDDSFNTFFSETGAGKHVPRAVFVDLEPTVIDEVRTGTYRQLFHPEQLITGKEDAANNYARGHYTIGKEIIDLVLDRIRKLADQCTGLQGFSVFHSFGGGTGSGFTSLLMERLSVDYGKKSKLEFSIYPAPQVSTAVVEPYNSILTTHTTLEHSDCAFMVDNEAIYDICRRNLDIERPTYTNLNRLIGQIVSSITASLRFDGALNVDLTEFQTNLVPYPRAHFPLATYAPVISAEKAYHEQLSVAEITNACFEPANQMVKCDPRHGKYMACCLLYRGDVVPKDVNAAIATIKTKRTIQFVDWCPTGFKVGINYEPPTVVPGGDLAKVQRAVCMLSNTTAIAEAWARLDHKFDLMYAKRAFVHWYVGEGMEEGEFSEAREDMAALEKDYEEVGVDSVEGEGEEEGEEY

LSF present in purified porcine brain tubulin preparations (natural protein)
methylation of purified tubulin by GST-SET8 ([3H]AdoMet, autoradiogram) with increasing concentrations of the LSF inhibitor FQI1, up to 100 μM: 3 fold
